{
  "source": "patent US20240034813A1",
  "about": "(Janssen / Centocor, published 2024)",
  "binders": {"B1": {"name": "amivantamab (bispecific antibody, human IgG1, kappa)", "heavy 1": "not shown", "light 1": "not shown", "heavy 2": "not shown", "light 2": "DIQMTQSPSSVSASVGDRVTITCRASQGISNWLAWFQHKPGKAPKLLIYAASSLLSGVPSRFSGSGSGTDFTLTISSLQPEDFATYYCQQANSFPITFGQGTRLEIKRTVAAPSVFIFPPSDEQLKSGTASVVCLLNNFYPREAKVQWKVDNALQSGNSQESVTEQDSKDSTYSLSSTLTLSKADYEKHKVYACEVTHQGLSSPVTKSFNRGEC", "notes": "The samples tested were high concentration (160 mg/mL) formulations, fresh or stored or stressed; also called JNJ-61186372; bispecific EGFR-cMet antibody"}},
  "key": {"[1]": {"biological_target": "T1, recombinant cMet/HGFR with c-terminal His-tag, Cy5-labeled (UniProt P08581 25-932, limits assumed, Cy5 label (reacted with Cy5 Mono NHS Ester; sites not stated))", "T1 construct": "Commercial protein; also called Cy5-c-MET; Cy5-labeled c-MET antigen; not shown: C-terminal His-tag", "test": "competitive TR-FRET (Eu-amivantamab/Cy5-c-MET), EC50 ratio vs Reference Material; Ex. 2 Formulation 3 (acetate), T0, 5 C table", "description": "(§1) In this procedure, varying concentrations of unlabeled bispecific EGFR-cMet antibody sample compete with donor fluorophore (Europium (Eu) chelate) labeled bispecific EGFR-cMet antibody for binding to an acceptor fluorophore (Cy5)-labeled c-MET antigen. Excitation of the donor fluorophore results in a transfer of energy to the bound acceptor fluorophore (FRET process). The resultant FRET is detected by emission of light at 665 nm using a microplate reader capable of measuring time-resolved fluorescence. Sample dose response curves are compared to the Reference Material (RM).\n(§2) c-MET Binding Materials and Methods. Certified commercial cMet, a recombinant cMet/HGFR with c-terminal His-tag is reacted with certified commercial Cy5 Mono NHS Ester to produce Cy5-labeled c-MET. Validated bispecific EGFR-cMet antibody is reacted with certified commercial Europium (Eu) chelate to produce Eu labeled bispecific EGFR-cMet antibody. […] Fluorescence is then measured by spectrophotometry at 665 nm, plotted against antibody concentration and analyzed by a four-parameter logistic model. The antibody concentration required to obtain half of the maximum fluorescence response (EC50) is determined for RM, assay control and samples. The potencies of assay control and samples are calculated based on the ratio of the sample (or control) and RM EC50 values and reported as a percentage activity relative to the RM."}, "[2]": {"biological_target": "T2, recombinant human EGFR/ErbB1/HER1 with C-terminal His tag, Cy5-labeled (human, UniProt P00533 25-645, Cy5 label (reacted with Cy5 Mono NHS Ester; sites not stated))", "T2 construct": "Commercial protein; also called Cy5-EGFR; Cy5-labeled EGFR antigen; not shown: C-terminal His tag", "test": "competitive TR-FRET (Eu-amivantamab/Cy5-EGFR), EC50 ratio vs Reference Material; Ex. 12 drug product with rHuPH20, 0 months, 25 C table", "description": "(§3) In this procedure, varying concentrations of unlabeled bispecific EGFR-cMet antibody sample compete with donor fluorophore (Europium (Eu) chelate) labeled bispecific EGFR-cMet antibody for binding to an acceptor fluorophore (Cy5)-labeled EGFR antigen. Excitation of the donor fluorophore results in a transfer of energy to the bound acceptor fluorophore (FRET process). The resultant FRET is detected by emission of light at 665 nm using a microplate reader capable of measuring time-resolved fluorescence. Sample dose response curves are compared to the RM.\nas §2, with “EGFR” for “c-MET”, “EGFR,” for “cMet,”, “human EGFR/ErbB1/HER1” for “cMet/HGFR”, “C-terminal His tag” for “c-terminal His-tag”, “EGFR.” for “c-MET.”, “Eu-labeled” for “Eu labeled”"}, "[3]": {"biological_target": "T2, recombinant human EGFR/ErbB1/HER1 with …", "test": "competitive TR-FRET (Eu-amivantamab/Cy5-EGFR), EC50 ratio vs Reference Material; Ex. 3 acetate formulation, 6 months at 25 C then shaking up to 72 h", "description": "as §3\nas §2, with “EGFR” for “c-MET”, “EGFR,” for “cMet,”, “human EGFR/ErbB1/HER1” for “cMet/HGFR”, “C-terminal His tag” for “c-terminal His-tag”, “EGFR.” for “c-MET.”, “Eu-labeled” for “Eu labeled”"}, "[4]": {"biological_target": "T1, recombinant cMet/HGFR with c-terminal …", "test": "competitive TR-FRET (Eu-amivantamab/Cy5-c-MET), EC50 ratio vs Reference Material; Ex. 11 drug product, 1 month at 40 C", "description": "as §1, §2"}, "[5]": {"biological_target": "T1, recombinant cMet/HGFR with c-terminal …", "test": "competitive TR-FRET (Eu-amivantamab/Cy5-c-MET), EC50 ratio vs Reference Material; Ex. 11 drug product, 6 months at 25 C", "description": "as §1, §2"}, "[6]": {"biological_target": "T2, recombinant human EGFR/ErbB1/HER1 with …", "test": "competitive TR-FRET (Eu-amivantamab/Cy5-EGFR), EC50 ratio vs Reference Material; Ex. 2 Formulation 2 (50 mM histidine), T0, 25 C table", "description": "as §3\nas §2, with “EGFR” for “c-MET”, “EGFR,” for “cMet,”, “human EGFR/ErbB1/HER1” for “cMet/HGFR”, “C-terminal His tag” for “c-terminal His-tag”, “EGFR.” for “c-MET.”, “Eu-labeled” for “Eu labeled”"}, "[7]": {"biological_target": "T2, recombinant human EGFR/ErbB1/HER1 with …", "test": "competitive TR-FRET (Eu-amivantamab/Cy5-EGFR), EC50 ratio vs Reference Material; Ex. 2 Formulation 3 (acetate), 1 month at 40 C", "description": "as §3\nas §2, with “EGFR” for “c-MET”, “EGFR,” for “cMet,”, “human EGFR/ErbB1/HER1” for “cMet/HGFR”, “C-terminal His tag” for “c-terminal His-tag”, “EGFR.” for “c-MET.”, “Eu-labeled” for “Eu labeled”"}, "[8]": {"biological_target": "T1, recombinant cMet/HGFR with c-terminal …", "test": "competitive TR-FRET (Eu-amivantamab/Cy5-c-MET), EC50 ratio vs Reference Material; Ex. 11 drug product, 3 months at 25 C", "description": "as §1, §2"}, "[9]": {"biological_target": "T1, recombinant cMet/HGFR with c-terminal …", "test": "competitive TR-FRET (Eu-amivantamab/Cy5-c-MET), EC50 ratio vs Reference Material; Ex. 11 drug product, 12 months at 5 C", "description": "as §1, §2"}},
  "data": [
    {"binder": "B1", "values": [
      {"measurement": "cMET Binding % activity relative to RM", "setting": "[1]", "value": 94, "unit": "%"},
      {"measurement": "EGFR Binding activity relative to Reference Material (%)", "setting": "[2]", "value": 92, "unit": "%"},
      {"measurement": "EGFR Binding % activity relative to RM", "setting": "[3]", "value": 86, "unit": "%"},
      {"measurement": "cMET Binding activity relative to Reference Material (%)", "setting": "[4]", "value": 84, "unit": "%"},
      {"measurement": "cMET Binding activity relative to Reference Material (%)", "setting": "[5]", "value": 113, "unit": "%"},
      {"measurement": "EGFR Binding % activity relative to RM", "setting": "[6]", "value": 103, "unit": "%"},
      {"measurement": "EGFR Binding % activity relative to RM", "setting": "[7]", "value": 76, "unit": "%"},
      {"measurement": "cMET Binding activity relative to Reference Material (%)", "setting": "[8]", "value": 94, "unit": "%"},
      {"measurement": "cMET Binding activity relative to Reference Material (%)", "setting": "[9]", "value": 98, "unit": "%"}
    ]}
  ]
}
